According to publication PMC10367113 (Nature chemical biology, 2022):

T1: Bl_Man38B (Bifidobacterium longum, UniProt Q8G4Q0)
T1 sequence (Q8G4Q0 1-1046): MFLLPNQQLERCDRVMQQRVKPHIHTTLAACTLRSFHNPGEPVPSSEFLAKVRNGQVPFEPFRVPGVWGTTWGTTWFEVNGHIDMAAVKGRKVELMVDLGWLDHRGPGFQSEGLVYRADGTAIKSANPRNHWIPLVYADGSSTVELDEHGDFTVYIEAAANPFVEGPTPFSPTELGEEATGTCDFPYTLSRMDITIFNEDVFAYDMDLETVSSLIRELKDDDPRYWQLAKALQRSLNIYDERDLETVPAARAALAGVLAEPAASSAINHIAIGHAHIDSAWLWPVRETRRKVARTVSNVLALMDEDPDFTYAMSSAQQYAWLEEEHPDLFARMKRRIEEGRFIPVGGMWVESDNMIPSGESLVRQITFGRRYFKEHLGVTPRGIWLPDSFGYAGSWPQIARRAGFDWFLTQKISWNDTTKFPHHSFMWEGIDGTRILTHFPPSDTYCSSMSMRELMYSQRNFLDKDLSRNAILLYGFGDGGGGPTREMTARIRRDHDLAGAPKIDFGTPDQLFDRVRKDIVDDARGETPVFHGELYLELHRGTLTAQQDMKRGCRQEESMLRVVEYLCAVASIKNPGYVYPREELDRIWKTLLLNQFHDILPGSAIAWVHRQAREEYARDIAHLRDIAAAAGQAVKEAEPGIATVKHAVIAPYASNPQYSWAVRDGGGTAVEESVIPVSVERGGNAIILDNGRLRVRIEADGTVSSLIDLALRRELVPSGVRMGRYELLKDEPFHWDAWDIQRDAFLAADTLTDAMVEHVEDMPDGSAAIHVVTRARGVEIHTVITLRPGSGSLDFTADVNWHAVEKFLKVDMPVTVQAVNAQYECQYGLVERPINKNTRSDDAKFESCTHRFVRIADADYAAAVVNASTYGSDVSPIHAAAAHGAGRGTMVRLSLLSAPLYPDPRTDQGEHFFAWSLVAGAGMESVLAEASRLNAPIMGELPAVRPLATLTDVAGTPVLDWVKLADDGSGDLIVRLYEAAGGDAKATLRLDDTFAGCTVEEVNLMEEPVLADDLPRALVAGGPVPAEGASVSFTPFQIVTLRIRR

B1: Bl_Man38B, GH38 α-mannosidase from Bifidobacterium longum NCC2705 (enzyme)
chain: T1 sequence (Q8G4Q0 1-1046)
B2: Bl_Man38C, GH38 α-mannosidase from Bifidobacterium longum NCC2705 (enzyme)
chain: MLLKVNREIDRCKRVMRERVWPHIHQVLAQCTVGAVKNPGEPEMPAAFITRAVSGQVIFQPLAVGEPWGTSWGTTWIRVEGQLPETLPEGRAIELVFNLGWLEWPVGGHIEAMAYRADGTVIKALHPRNHWMPLVSADGVKDRVVNPDGSFVVYVEGAYNPNVPSFTVTELGTKPTGKADERYEFSSIDIAALDQDMFDYWADLDVVTGSLENMNDADPRYWKLAKAMQRSINLWDEKDYNTLALARKALDKVMHNPANASAMTLTAMGHSHIDSAWLWPVRETERKVGRTVSNALALMDIDPDFTYVMSAAQHFAWLEERHPDLFERVKARIAEGRFIPVGGMWVESDGTMPCGESLIRQISYGKRYFKEKLGVVPNGIWLPDSFGYTGAWPQIAKRSGYSWFLTQKLCWNDTTRLPHHSFMWEGVDGSQIFTHFPPADKYDSDMSANDMAYVQSNYKDKDLSDRGILLFGYGDGGGGPIREMTMREHRFESFEGMPKVEYGTPDDFFSKAETEMKAEAGSEMPRWKGEFYFELHRKTLTSQQEMKRGCRKEESMLRTVEYLGVVASLESADYVYPTERIDRIWKTLLLSQFHDILPGSAIEWAHRVAREEYARDLKALSDIARDAIAAIAVANPDVARIAKARISQFADVDPWRPASLVSCGEPVEVNRREDGSATLDNGLLCVHVAADGTVDSMIDLKSGREMVAKDHVMGRYEILKDEPGVFDAWDVERDAFLCATALADGHIVSIETTADGSAVIVTKNSYRDDEISTTITLRPGKSQLDFHADVEWNVPEKLLKVDIPMALSASRAQYECQYGLIERPIVKNTEGEEAMFESCSHRFVRIHDSSYGIGVANGSTYGSDVSSLRDRDDALAGTMVRMSLVAAPTAPDPRTDIGHHEFDWTVLPCASVAPLVAAAGEINAPTIENMPDIAAPITLEPIEGTPVIDWIKLADDGSGDIVARLYEAAGAKAKAMLHVGGTLDGWTVRETNTLEQDESYPDEPAGLIGGKQQAEGAELALNPFQLTTLRLSRA
B3: Bl_Man38A, GH38 α-mannosidase from Bifidobacterium longum NCC2705 (enzyme)
chain: MFLKPEQQLERCRRIVRQRVDPHIHPSIAQLTVESYDIPGEPMPSDEFFAKLDRGDIDFKPFMLGSEWGTTWGTVWFRLTGTVPAGYPKGKPLELILDLGWYPHSCGGHIEGLVYRADGTAIKAVHPLNYWVPFMDAEGNAQVPVAEDGSFTLYLEAASNPLLLGVPPFIETELGDHATGKPDEPYVFKSADLAEFDERYENYSVDLDVVSSLMEFADKQSPRYWQLAKALQRSLNAYDERNPESVEAARAVLAGVLAKPANASAMNVSAIGHAHIDSAWLWPVRETRRKVARTVSNALALMDADPDFKYAMSSAQQYAWLEEDHPDIFKRMKRRIEEGRFIPVGGMWVEADGMLPAGESLIRQIAYGRKYFKEHLGVEPKGVWLPDSFGYTGAWPQIARRAGYEWFLTQKISWNDTTKFPHHSFMWEGIDGSRIFTHFPPADTYAAWCKVQELDYAEKNFQDKDLSDRSLLLFGFGDGGGGPTRNMMEHLHRYENLEGVSKVSIEEPNDFFDKAHQQLAENAGPEMPVWKGELYLELHRGTLTSQQDMKRGCRQEESLLRTVEYLGAAAVLSDPEYVYPREELDRIWKTLLLNQFHDILPGSAIAWVHREAREDYRRDLKRLAEIAQDMCAVLRKANPQADLLAEARISQFRNDGASWHANRINEPTDALSVLTQTLDNGRVLLANGVLSVTIEADGTISSLLDEEHGRELVPAGTRLGQYELLRDEPAVWDAWEIERESLLMANAVTGSIESVNTENGAAQVHVHTADGDTVITTTITLRPGSHTLDFHADIDWHERERFLKVDLPLGIVADQATYDCQYGLIRRPIVKNTASDEAKYESSTNRFAIIGDAGYAAAVINGSVYGSDASPIAGNAAEGRDSGTMFRLSLLSAPTFPDPRTDIGSHEFDWSVVADATVDRALDAAGVLNAPVLHDVPDITPLASIESVNGTVVLDWMKLADDGSGDLIVRAYEAAGGQADAMLHVCPALAGASVHETNVLEGDDLAADLPVALQDGRQNAEGATLHFGPFQLATLRITR

Tests used:
Bl_Man38B = target: T1, Bl_Man38B; experiment: LC-MS hydrolysis kinetics; assay type: biochemical; details: pH 5.5, 37 °C, 0.1 mM CoCl2
cryo-EM structure = target: the molecule itself; experiment: cryo-EM structure

Molecule | Km (Bl_Man38B) | stoichiometry N (cryo-EM structure)
OC[C@H]1O[C@H](O[C@H]2[C@H](O)[C@@H](CO)OC(O)[C@H]2O)[C@@H](O)[C@@H](O)[C@@H]1O (stereo partly drawn) [α-1,3-mannobiose] | Bl_Man38B was efficient over the three disaccharides | 
B1 |  | 4
B2 |  | 4
B3 |  | 4
